Results published in IntAct's records for PubMed 21765415.

B1: Inhibitor of nuclear factor kappa-B kinase subunit alpha (Homo sapiens), O15111 (parent)
chain: MERPPGLRPGAGGPWEMRERLGTGGFGNVCLYQHRELDLKIAIKSCRLELSTKNRERWCHEIQIMKKLNHANVVKACDVPEELNILIHDVPLLAMEYCSGGDLRKLLNKPENCCGLKESQILSLLSDIGSGIRYLHENKIIHRDLKPENIVLQDVGGKIIHKIIDLGYAKDVDQGSLCTSFVGTLQYLAPELFENKPYTATVDYWSFGTMVFECIAGYRPFLHHLQPFTWHEKIKKKDPKCIFACEEMSGEVRFSSHLPQPNSLCSLVVEPMENWLQLMLNWDPQQRGGPVDLTLKQPRCFVLMDHILNLKIVHILNMTSAKIISFLLPPDESLHSLQSRIERETGINTGSQELLSETGISLDPRKPASQCVLDGVRGCDSYMVYLFDKSKTVYEGPFASRSLSDCVNYIVQDSKIQLPIIQLRKVWAEAVHYVSGLKEDYSRLFQGQRAAMLSLLRYNANLTKMKNTLISASQQLKAKLEFFHKSIQLDLERYSEQMTYGISSEKMLKAWKEMEEKAIHYAEVGVIGYLEDQIMSLHAEIMELQKSPYGRRQGDLMESLEQRAIDLYKQLKHRPSDHSYSDSTEMVKIIVHTVQSQDRVLKELFGHLSKLLGCKQKIIDLLPKVEVALSNIKEADNTVMFMQGKRQKEIWHLLKIACTQSSARSLVGSSLEGAVTPQTSAWLPPTSAEHDHSLSCVVTPQDGETSAQMIEENLNCLGHLSTIIHEANEEQGNSMMNLDWSWLTE

Variants of: B1
Conditions: with taxb1_human TAX1BP1, Q86VP1
taxb1_human TAX1BP1, Q86VP1, sequence (Q86VP1 whole entry): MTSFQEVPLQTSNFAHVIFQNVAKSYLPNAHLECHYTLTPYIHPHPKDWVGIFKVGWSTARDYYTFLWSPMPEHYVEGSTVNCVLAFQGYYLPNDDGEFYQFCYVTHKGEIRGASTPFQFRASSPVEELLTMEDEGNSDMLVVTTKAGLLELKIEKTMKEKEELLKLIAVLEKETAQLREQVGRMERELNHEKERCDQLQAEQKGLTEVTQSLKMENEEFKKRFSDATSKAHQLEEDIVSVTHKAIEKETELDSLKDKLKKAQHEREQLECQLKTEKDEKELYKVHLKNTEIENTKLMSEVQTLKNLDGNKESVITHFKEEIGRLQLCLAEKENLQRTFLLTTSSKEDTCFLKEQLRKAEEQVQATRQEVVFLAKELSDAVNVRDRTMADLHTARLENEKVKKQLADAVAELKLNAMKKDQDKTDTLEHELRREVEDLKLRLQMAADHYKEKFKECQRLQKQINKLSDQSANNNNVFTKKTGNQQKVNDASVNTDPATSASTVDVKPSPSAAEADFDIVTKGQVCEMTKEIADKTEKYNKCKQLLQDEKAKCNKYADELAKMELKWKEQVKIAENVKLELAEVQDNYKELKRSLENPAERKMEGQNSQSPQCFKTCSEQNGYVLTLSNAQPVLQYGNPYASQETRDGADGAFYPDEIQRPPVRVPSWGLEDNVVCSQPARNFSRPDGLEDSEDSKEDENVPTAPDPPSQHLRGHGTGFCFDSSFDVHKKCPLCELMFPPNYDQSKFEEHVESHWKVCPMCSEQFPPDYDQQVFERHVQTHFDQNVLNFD

Variant	effect of a mutation on the interaction
K44M	disrupting interaction
